Test results: PMC10828586, “Unmasking crucial residues in adipose triglyceride lipase for coactivation with comparative gene identification-58” (Journal of Lipid Research, 2023)
Residue numbers refer to the chain shown, from its start.

Key:
Assay in all cases: cell-based or functional assay
[1] = target: T1, Xpress-mATGL288 N209A/I212A/N215A (Mus musculus, UniProt Q8BJ56 1-288, N209A | I212A | N215A)
T1 sequence (looked up): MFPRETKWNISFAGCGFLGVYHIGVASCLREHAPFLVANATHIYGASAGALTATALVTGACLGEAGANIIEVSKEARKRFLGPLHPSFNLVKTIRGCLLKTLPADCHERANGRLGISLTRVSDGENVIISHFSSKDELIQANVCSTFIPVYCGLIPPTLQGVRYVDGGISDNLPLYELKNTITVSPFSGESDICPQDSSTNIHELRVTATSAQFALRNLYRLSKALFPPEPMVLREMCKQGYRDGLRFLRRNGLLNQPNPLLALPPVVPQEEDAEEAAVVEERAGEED

[2] = target: T2, smt3-mATGL288-StrepII (mouse adipose triglyceride lipase truncated after residue 288), WT (Mus musculus, UniProt Q8BJ56 1-288)
T2 sequence (looked up): T1 sequence (looked up) with A209N, A212I, A215N

[3] = target: T3, smt3-mATGL288-StrepII N209A (Mus musculus, UniProt Q8BJ56 1-288, N209A)
T3 sequence (looked up): T1 sequence (looked up) with A212I, A215N

[4] = target: T4, Xpress-mATGL, full-length, WT (Mus musculus, UniProt Q8BJ56 1-486)
T4 sequence (looked up): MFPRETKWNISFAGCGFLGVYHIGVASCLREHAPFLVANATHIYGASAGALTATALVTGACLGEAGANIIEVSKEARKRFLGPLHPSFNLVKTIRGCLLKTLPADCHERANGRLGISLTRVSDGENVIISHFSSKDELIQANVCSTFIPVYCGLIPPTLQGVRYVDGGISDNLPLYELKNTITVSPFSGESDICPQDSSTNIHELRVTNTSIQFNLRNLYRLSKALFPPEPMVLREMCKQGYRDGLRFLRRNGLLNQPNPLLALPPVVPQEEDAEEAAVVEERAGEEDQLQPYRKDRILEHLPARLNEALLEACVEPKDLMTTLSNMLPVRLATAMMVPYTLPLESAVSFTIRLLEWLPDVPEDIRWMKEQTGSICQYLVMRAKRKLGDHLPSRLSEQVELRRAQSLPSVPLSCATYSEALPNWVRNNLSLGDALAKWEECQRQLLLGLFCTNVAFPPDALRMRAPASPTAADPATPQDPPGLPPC

[5] = target: T5, smt3-mATGL288-StrepII I212S (Mus musculus, UniProt Q8BJ56 1-288, I212S)
T5 sequence (looked up): T1 sequence (looked up) with A209N, A212S, A215N

[6] = target: T6, smt3-mATGL288-StrepII I212A (Mus musculus, UniProt Q8BJ56 1-288, I212A)
T6 sequence (looked up): T1 sequence (looked up) with A209N, A215N

[7] = target: T7, Xpress-mATGL288, WT (truncated after residue 288) (Mus musculus, UniProt Q8BJ56 1-288)
T7 sequence (looked up): T1 sequence (looked up) with A209N, A212I, A215N

[8] = target: T8, smt3-mATGL288-StrepII N215A (Mus musculus, UniProt Q8BJ56 1-288, N215A)
T8 sequence (looked up): T1 sequence (looked up) with A209N, A212I

B1: smt3-mCGI-58-His6 (mouse comparative gene identification-58) (natural protein, UniProt Q9DBL9 1-351, looked up)
chain: MKAMAAEEEVDSADAGGGSGWLTGWLPTWCPTSTSHLKEAEEKMLKCVPCTYKKEPVRISNGNRIWTLMFSHNISSKTPLVLLHGFGGGLGLWALNFEDLSTDRPVYAFDLLGFGRSSRPRFDSDAEEVENQFVESIEEWRCALRLDKMILLGHNLGGFLAAAYSLKYPSRVSHLILVEPWGFPERPDLADQERPIPVWIRALGAALTPFNPLAGLRIAGPFGLSLVQRLRPDFKRKYSSMFEDDTVTEYIYHCNVQTPSGETAFKNMTIPYGWAKRPMLQRIGGLHPDIPVSVIFGARSCIDGNSGTSIQSLRPKSYVKTIAILGAGHYVYADQPEEFNQKVKEICHTVD
In the case of B1, the “fold activation of TG hydrolase activity by mCGI-58 (Expi293F lysate)” value (shortened to “fold activation of TG hydrolase activity”) [1] is reported as at most 2 fold, the “EC50 of mCGI-58 for coactivation of TG hydrolase activity (25 μg bacterial lysate with mATGL288, purified mCGI-58 up to 2,300 nM)” value [2] is reported as 178 nM and the “EC50 of mCGI-58 for coactivation of TG hydrolase activity (25 μg bacterial lysate with mATGL288 N209A, purified mCGI-58 up to 2,300 nM)” value [3] is reported as 500 nM. For the same binder, the “fold activation of TG hydrolase activity” value [4] was about 20 fold, the “EC50 of mCGI-58 for coactivation of TG hydrolase activity (25 μg bacterial lysate with mATGL288 I212S, purified mCGI-58 up to 2,300 nM)” value [5] was 200 nM and the “EC50 of mCGI-58 for coactivation of TG hydrolase activity (25 μg bacterial lysate with mATGL288 I212A, purified mCGI-58 up to 2,300 nM)” value [6] was 500 nM. For the same binder, the “fold activation of TG hydrolase activity” value [7] was 11 fold and the “EC50 of mCGI-58 for coactivation of TG hydrolase activity (25 μg bacterial lysate with mATGL288 N215A, purified mCGI-58 up to 2,300 nM)” value [8] was 200 nM.
